# From US20230183713A1, “SITE-SPECIFIC RECOMBINASES FOR EFFICIENT AND SPECIFIC GENOME EDITING” (TECHNISCHE UNIVERSITÄt DRESDEN, published 2023)
# T1: Cre recombinase monomer with K201A mutation
# T1 chain: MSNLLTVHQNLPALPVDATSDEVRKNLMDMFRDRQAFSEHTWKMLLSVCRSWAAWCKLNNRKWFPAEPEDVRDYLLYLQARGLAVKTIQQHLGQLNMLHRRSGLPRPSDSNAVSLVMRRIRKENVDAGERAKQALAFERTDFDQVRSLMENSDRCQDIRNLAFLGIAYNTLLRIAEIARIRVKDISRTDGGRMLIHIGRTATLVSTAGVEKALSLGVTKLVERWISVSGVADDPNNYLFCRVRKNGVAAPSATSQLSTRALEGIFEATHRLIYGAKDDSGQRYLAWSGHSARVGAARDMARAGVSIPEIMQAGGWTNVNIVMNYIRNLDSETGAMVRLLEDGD
# T2: Cre recombinase monomer with Q311R mutation
# T2 chain: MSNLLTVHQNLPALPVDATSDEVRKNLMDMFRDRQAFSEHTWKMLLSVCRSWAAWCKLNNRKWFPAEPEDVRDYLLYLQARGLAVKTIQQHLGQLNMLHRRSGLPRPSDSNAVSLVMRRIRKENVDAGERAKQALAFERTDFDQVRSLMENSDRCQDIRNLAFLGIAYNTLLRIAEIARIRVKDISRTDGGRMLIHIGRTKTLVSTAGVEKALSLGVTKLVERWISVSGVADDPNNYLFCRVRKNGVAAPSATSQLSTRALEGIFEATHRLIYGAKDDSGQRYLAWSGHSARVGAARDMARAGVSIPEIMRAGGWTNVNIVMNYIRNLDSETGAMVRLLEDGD
# T3: Cre recombinase monomer with R292A mutation
# T3 chain: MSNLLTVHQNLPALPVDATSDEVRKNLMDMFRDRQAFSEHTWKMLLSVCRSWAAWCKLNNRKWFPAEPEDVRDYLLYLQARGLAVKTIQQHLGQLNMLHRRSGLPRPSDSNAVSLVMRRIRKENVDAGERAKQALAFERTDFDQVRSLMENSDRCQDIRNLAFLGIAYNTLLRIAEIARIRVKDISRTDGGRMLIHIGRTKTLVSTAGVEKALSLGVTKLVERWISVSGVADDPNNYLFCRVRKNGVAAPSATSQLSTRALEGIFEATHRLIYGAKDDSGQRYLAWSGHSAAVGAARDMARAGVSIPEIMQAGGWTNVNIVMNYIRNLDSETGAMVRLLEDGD
# T4: Cre recombinase monomer with R292E mutation
# T4 chain: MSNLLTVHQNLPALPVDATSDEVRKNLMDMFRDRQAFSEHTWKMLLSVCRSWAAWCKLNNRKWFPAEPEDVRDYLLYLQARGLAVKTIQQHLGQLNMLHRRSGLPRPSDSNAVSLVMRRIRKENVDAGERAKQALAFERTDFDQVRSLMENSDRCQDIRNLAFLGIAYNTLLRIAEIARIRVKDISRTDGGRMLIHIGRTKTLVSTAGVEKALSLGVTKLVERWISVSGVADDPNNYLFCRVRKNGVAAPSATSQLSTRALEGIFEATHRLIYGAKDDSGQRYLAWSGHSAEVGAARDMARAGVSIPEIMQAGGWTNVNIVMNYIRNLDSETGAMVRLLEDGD
# T5: Cre recombinase monomer with R292S mutation
# T5 chain: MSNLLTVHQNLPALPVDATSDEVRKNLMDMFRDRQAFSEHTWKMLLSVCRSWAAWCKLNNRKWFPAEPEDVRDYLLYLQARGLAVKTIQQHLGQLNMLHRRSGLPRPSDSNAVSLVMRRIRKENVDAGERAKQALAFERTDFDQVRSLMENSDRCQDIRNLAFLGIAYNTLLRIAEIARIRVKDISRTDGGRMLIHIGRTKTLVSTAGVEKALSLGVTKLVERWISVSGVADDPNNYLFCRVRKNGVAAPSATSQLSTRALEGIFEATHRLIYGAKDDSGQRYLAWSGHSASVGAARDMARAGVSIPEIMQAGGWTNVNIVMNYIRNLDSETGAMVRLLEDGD
# T6: Cre recombinase monomer with R292M mutation
# T6 chain: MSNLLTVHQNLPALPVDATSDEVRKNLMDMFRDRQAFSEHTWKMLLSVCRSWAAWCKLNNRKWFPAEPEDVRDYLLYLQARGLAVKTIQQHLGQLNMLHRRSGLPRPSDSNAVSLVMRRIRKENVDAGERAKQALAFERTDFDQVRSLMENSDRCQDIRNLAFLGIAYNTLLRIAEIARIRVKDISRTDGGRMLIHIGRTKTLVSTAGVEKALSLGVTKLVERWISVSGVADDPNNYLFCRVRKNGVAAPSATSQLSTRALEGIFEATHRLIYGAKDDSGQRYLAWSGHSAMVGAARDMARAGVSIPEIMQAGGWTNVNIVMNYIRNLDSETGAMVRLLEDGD
# T7: Cre recombinase monomer with Y324F mutation
# T7 chain: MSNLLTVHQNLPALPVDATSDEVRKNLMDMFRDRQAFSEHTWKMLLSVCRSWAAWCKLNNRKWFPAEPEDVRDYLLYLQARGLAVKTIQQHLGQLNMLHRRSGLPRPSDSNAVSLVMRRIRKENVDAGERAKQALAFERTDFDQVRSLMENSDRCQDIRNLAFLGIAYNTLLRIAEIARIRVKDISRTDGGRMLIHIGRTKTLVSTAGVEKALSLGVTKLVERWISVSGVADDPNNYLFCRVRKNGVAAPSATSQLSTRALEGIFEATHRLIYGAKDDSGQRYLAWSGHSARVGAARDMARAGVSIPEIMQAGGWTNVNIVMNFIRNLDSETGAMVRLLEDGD
# T8: Cre recombinase monomer with Y324W mutation
# T8 chain: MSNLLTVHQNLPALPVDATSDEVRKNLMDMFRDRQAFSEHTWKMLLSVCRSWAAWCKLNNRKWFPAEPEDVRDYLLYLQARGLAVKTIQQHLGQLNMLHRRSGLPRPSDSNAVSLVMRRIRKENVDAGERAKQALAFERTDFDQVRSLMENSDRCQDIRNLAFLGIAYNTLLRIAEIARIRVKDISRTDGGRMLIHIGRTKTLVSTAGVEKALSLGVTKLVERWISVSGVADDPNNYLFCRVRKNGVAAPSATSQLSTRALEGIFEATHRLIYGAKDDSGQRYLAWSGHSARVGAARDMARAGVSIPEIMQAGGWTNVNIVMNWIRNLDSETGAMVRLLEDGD
# T9: Cre recombinase monomer with R292I mutation
# T9 chain: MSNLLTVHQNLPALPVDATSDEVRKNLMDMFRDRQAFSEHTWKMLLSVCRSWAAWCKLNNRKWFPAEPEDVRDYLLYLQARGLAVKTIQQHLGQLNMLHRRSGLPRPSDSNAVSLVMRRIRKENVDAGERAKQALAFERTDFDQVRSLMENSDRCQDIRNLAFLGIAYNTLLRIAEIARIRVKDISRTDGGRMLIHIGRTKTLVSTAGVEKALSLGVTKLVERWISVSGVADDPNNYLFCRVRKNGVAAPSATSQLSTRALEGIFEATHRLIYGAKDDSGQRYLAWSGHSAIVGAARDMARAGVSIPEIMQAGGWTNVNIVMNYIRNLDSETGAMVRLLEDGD
# T10: Cre recombinase monomer with R292N mutation
# T10 chain: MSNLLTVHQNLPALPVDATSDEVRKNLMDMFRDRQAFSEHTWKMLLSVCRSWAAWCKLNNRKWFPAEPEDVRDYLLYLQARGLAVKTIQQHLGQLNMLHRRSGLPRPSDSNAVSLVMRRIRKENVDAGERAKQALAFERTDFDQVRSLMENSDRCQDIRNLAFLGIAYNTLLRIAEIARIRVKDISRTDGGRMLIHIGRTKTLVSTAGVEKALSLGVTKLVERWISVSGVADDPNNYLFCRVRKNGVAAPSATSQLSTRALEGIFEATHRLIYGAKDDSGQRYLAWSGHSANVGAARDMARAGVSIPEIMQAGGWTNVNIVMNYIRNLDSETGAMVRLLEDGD
# T11: Cre recombinase monomer with R292T mutation
# T11 chain: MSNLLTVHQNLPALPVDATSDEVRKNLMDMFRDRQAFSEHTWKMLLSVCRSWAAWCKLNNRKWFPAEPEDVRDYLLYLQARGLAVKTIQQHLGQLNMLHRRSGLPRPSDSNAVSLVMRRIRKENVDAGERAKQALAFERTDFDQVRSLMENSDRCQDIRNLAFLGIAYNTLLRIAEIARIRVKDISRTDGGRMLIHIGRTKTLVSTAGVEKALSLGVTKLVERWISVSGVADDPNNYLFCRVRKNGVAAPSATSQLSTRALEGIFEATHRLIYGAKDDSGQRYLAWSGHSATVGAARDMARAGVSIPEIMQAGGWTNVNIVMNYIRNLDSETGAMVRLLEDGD
# Columns and labels:
# [1] = biological target: T1, Cre recombinase monomer with K201A …
# [2] = biological target: T2, Cre recombinase monomer with Q311R …
# [3] = biological target: T3, Cre recombinase monomer with R292A …
# [4] = biological target: T4, Cre recombinase monomer with R292E …
# [5] = biological target: T5, Cre recombinase monomer with R292S …
# [6] = biological target: T6, Cre recombinase monomer with R292M …
# [7] = biological target: T7, Cre recombinase monomer with Y324F …
# [8] = biological target: T8, Cre recombinase monomer with Y324W …
# [9] = biological target: T9, Cre recombinase monomer with R292I …
# [10] = biological target: T10, Cre recombinase monomer with R292N …
# [11] = biological target: T11, Cre recombinase monomer with R292T …
Protein,Median dimer activity (recombination on loxP) [1] [%],Median dimer activity (recombination on loxP) [2] [%],Median dimer activity (recombination on loxP) [3] [%],Median dimer activity (recombination on loxP) [4] [%],Median dimer activity (recombination on loxP) [5] [%],Median dimer activity (recombination on loxP) [6] [%],Median dimer activity (recombination on loxP) [7] [%],Median dimer activity (recombination on loxP) [8] [%],Median dimer activity (recombination on loxP) [9] [%],Median dimer activity (recombination on loxP) [10] [%],Median dimer activity (recombination on loxP) [11] [%]
Cre recombinase monomer with E176H mutation (protein) MSNLLTVHQNLPALPVDATSDEVRKNLMDMFRDRQAFSEHTWKMLLSVCRSWAAWCKLNNRKWFPAEPEDVRDYLLYLQARGLAVKTIQQHLGQLNMLHRRSGLPRPSDSNAVSLVMRRIRKENVDAGERAKQALAFERTDFDQVRSLMENSDRCQDIRNLAFLGIAYNTLLRIAHIARIRVKDISRTDGGRMLIHIGRTKTLVSTAGVEKALSLGVTKLVERWISVSGVADDPNNYLFCRVRKNGVAAPSATSQLSTRALEGIFEATHRLIYGAKDDSGQRYLAWSGHSARVGAARDMARAGVSIPEIMQAGGWTNVNIVMNYIRNLDSETGAMVRLLEDGD,33,51,55,38,68,,,,,,
Cre recombinase monomer with E176I mutation (protein) MSNLLTVHQNLPALPVDATSDEVRKNLMDMFRDRQAFSEHTWKMLLSVCRSWAAWCKLNNRKWFPAEPEDVRDYLLYLQARGLAVKTIQQHLGQLNMLHRRSGLPRPSDSNAVSLVMRRIRKENVDAGERAKQALAFERTDFDQVRSLMENSDRCQDIRNLAFLGIAYNTLLRIAIIARIRVKDISRTDGGRMLIHIGRTKTLVSTAGVEKALSLGVTKLVERWISVSGVADDPNNYLFCRVRKNGVAAPSATSQLSTRALEGIFEATHRLIYGAKDDSGQRYLAWSGHSARVGAARDMARAGVSIPEIMQAGGWTNVNIVMNYIRNLDSETGAMVRLLEDGD,,36,,,40,43,67,50,,,
Cre recombinase monomer with E176V mutation (protein) MSNLLTVHQNLPALPVDATSDEVRKNLMDMFRDRQAFSEHTWKMLLSVCRSWAAWCKLNNRKWFPAEPEDVRDYLLYLQARGLAVKTIQQHLGQLNMLHRRSGLPRPSDSNAVSLVMRRIRKENVDAGERAKQALAFERTDFDQVRSLMENSDRCQDIRNLAFLGIAYNTLLRIAVIARIRVKDISRTDGGRMLIHIGRTKTLVSTAGVEKALSLGVTKLVERWISVSGVADDPNNYLFCRVRKNGVAAPSATSQLSTRALEGIFEATHRLIYGAKDDSGQRYLAWSGHSARVGAARDMARAGVSIPEIMQAGGWTNVNIVMNYIRNLDSETGAMVRLLEDGD,,,,,28,,,,33,31,45
